From patent US20150079112A1 (SAMSUNG ELECTRONICS, published 2015)

Experiments:
Assay in all cases: ELISA, coated antibody 1000 nM, 250 ng FLAG-tagged mutant Ang2, anti-FLAG-HRP, OD450
[1] = target: T1, mutant Ang2 protein, S417 substituted with alanine, FLAG-tagged at its N-terminal (human, UniProt O15123 19-496, limits assumed)
T1 sequence: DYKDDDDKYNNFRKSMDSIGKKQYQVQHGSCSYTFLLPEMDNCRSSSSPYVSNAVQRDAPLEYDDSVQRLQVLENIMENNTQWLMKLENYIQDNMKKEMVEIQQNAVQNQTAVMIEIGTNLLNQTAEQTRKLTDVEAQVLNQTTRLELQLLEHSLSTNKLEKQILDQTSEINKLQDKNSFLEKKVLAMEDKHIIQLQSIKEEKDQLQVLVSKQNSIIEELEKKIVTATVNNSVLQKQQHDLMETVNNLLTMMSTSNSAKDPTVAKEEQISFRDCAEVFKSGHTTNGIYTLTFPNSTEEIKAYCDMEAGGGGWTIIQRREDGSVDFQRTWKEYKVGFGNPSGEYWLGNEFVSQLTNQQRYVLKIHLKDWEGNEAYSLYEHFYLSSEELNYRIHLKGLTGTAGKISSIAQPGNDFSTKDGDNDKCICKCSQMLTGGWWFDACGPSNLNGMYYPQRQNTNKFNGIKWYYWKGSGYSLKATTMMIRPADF
Method: (§1) Each well of a 96-well MaxiSorp™ flat-bottom plate (Nunc) was coated with 50 ul (microliter) of 1000 nM antibody. Then, the plate was washed five times with 0.05% (v/v) Tween-20-containing PBS (PBST) and blocked with 1% (v/v) BSA-containing PBS at a room temperature for 2 hours. 250 ng of each mutant Ang2 protein obtained by substituting S417, Q418, P419, N421, I434, D448, A449, P452, Y460, N467, K468, or F469 residue of Ang2 protein tagged with a FLAG sequence ([…], Sigma) at its N-terminal with alanine was added to each well of the plate, which was then allowed to react at a room temperature for 2 hours.
(§2) The plate was washed five times with 0.05% (v/v) Tween-20 containing PBS, reacted with an anti-FLAG antibody (SIGMA) conjugated with HRP which was diluted in 1% (v/v) BSA-containing PBS at a ratio of 1:5,000 (v/v) at a room temperature for 1 hour, and washed five times with 0.1% (v/v) Tween-20-containing PBS.
(§3) Finally, 50 ul of TMB substrates (Cell signaling) was added to each well of the plate to induce color development at a room temperature for 3 min. and the reaction was ceased by the addition of 50 ul of Stop solution (Cell signaling) and then, OD450 values were measured on a plate reader (Molecular Devices). By comparing binding affinities with mutated Ang2 to those of unmutated Ang2, each epitope of Ang2 antibodies was identified. The thus obtained measurement results of the binding affinities (%) with mutant Ang2 against the binding affinity with the native Ang2 are shown in the following Table 8.

[2] = target: T2, mutant Ang2 protein, K468 substituted with alanine, FLAG-tagged at its N-terminal (human, UniProt O15123 19-496, limits assumed)
T2 sequence: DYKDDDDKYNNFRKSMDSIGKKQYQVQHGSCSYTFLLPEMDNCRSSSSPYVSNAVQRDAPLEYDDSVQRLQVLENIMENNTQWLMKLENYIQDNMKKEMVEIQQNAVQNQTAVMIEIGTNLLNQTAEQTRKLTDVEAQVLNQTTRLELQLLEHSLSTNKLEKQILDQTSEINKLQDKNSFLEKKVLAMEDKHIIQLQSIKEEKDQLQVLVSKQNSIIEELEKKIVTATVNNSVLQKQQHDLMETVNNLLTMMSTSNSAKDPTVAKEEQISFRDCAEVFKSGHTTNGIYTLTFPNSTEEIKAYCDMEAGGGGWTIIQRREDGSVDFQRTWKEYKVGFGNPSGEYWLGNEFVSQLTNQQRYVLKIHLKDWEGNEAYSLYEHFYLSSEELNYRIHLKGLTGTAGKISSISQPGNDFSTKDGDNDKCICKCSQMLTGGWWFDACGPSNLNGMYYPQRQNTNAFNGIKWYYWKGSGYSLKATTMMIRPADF
Method: as §1, §2, §3

[3] = target: T3, mutant Ang2 protein, N467 substituted with alanine, FLAG-tagged at its N-terminal (human, UniProt O15123 19-496, limits assumed)
T3 sequence: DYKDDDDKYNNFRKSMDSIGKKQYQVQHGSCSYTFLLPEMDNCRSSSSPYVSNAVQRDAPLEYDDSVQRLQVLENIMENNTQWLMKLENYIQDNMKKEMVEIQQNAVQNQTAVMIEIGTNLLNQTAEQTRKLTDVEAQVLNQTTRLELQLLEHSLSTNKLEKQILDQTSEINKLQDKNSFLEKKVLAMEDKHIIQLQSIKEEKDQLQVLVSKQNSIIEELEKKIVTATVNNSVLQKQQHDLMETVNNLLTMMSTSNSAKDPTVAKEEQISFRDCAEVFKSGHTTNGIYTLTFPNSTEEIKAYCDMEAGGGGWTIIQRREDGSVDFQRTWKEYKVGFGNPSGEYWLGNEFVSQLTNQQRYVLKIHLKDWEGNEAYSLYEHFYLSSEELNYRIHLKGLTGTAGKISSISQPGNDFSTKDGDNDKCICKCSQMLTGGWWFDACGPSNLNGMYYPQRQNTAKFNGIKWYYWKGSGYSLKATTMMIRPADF
Method: as §1, §2, §3

[4] = target: T4, mutant Ang2 protein, P419 substituted with alanine, FLAG-tagged at its N-terminal (human, UniProt O15123 19-496, limits assumed)
T4 sequence: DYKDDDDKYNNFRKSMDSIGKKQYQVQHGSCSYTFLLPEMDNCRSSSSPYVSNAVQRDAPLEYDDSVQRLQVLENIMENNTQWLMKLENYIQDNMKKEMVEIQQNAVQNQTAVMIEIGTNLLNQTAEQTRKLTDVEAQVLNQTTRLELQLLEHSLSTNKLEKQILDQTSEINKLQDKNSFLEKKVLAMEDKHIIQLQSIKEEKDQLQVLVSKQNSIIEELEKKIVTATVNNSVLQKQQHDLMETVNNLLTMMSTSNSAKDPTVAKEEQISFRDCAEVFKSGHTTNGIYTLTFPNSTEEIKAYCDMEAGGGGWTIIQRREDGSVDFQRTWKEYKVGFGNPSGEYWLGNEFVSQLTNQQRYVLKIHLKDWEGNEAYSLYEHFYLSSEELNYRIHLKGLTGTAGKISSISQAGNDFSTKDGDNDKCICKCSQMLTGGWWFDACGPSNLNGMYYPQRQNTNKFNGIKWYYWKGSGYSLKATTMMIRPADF
Method: as §1, §2, §3

B1: SAIT-ANG2-AB-m10D6 (antibody, V domains shown)
VH: DVQLQESGPGLVKPSQSLSLTCTVTGYSITSDYAWNWIRQFPGNKLEWMGYINYSGNTDYNPSLKSRSSITRDTSKNQFFLQLNSVTTGDTATYYCARGNFEGAMDYWGQGTSVTVSS
VL: SIVMTQTPKFLLVSAGDRVTITCKASQSVSNDVAWYQQKPGQSPKLLIYYASNRYPGVPDRFTGSGYGTDFTFTISTVQAEDLAVYFCQQDYSSPWTFGGGTKLEIK
notes: also called antibody 10D6; anti-Ang2 antibody (10D6)
For B1, the “binding affinity (%) with mutant Ang2 against the binding affinity with the native Ang2” value (“binding affinity (%) with mutant Ang2” for short) [1] was 101%, the “binding affinity (%) with mutant Ang2” value [2] was 110% and the “binding affinity (%) with mutant Ang2” value [3] was 107%. The “binding affinity (%) with mutant Ang2” value [4] was 41.1%.
